Test results as given in patent publication US7556938B1, “Nucleic acids encoding potassium channel interactors” (Millennium Pharmaceuticals, Inc., priority 1998, dated 2009).

Assays:
rKv4.3 = assay: Two-electrode voltage clamp of Kv4.3 currents in Xenopus oocytes co-injected with KChIP cRNA; type: cell-based, rat; conditions: for effect on Kv4.3 current: co-injected with Kv4.3 cRNA; for fold increase of inactivation time constant of Kv4.3: versus Kv4.3 alone
Experimental: Frogs underwent no more than two surgeries and surgeries were performed by well established techniques. Frogs were anesthetized with ice. Total cRNA (1-10 ng) was injected into stage IV Xenopus oocytes that were harvested the previous day. The Xenopus oocytes were incubated in ND96 containing (in mM) 96 NaCl, 2 KCl, 1.8 CaCl2, 1 MgCl2, 5 HEPES, pH 7.6, plus (Gentamycin 50 μg/ml) at 18° C. Xenopus oocytes were studied 3-7 days after injection. The two-electrode voltage-clamp recordings were performed in ND96 solution using a TURBO TEC 03 Clamp Amplifier (ALA Scientific Instruments, Westbury, N.Y.). Both electrodes were filled with 3 M KCl and had electrode resistances ranging from 0.2-1 MOhm. The current signals were filtered at 1000 Hz before transferred on a PC (Gateway, Calif.) using the PULSE software (HEKA, Germany).
To investigate whether the modulatory effects of these KChIPs are specific for Kv4 channels, KChIP1 was coexpressed with Kv1.4 and Kv2.1 in Xenopus oocytes. Xenopus oocytes were injected with 1-3 ng/oocyte of cRNA which was prepared using standard in vitro transcription techniques (Sambrook et al. 1989. Molecular Cloning: a laboratory manual, Cold Spring Harbor Press). Currents in Xenopus oocytes were measured with a two-electrode voltage clamp. […] As a final control for the KChIP effects and to verify that the KChIPs' effects on Kv4 currents are independent of expression system, the above kinetic analyses were repeated after expressing Kv4.3 and KChIP mRNAs in Xenopus oocytes. The effects KChIP1 on for Kv4.3 in the Xenopus oocyte system were strikingly similar to those on Kv4.2 in CHO cells (Table 1).

rKv4.3N = target: T1, rKv4.3N (Rattus norvegicus, UniProt Q62897); assay: Yeast two-hybrid binding and specificity test, Kv4.3 N-terminal bait
T1 construct: expressed in transfected cells; host or cells: yeast HF7c (bait), mated with Y187 (fish)
T1 sequence (Q62897 1-180): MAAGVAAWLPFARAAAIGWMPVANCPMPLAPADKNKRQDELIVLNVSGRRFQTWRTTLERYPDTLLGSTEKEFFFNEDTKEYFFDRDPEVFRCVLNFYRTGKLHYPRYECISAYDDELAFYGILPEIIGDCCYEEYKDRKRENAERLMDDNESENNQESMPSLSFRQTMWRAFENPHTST
Experimental: The first 180 amino acids of rKv4.3 (described in Serdio P. et al. (1996) J. Neurophys 75:2174-2179) were amplified by PCR and cloned in frame into pGBT9 resulting in plasmid pFWA2, (hereinafter “bait”). This bait was transformed into the two-hybrid screening strain HF7c and tested for expression and self-activation. The bait was validated for expression by Western blotting.
Two-hybrid screens were carried out essentially as described in Bartel, P. et al. (1993) “Using the Two-Hybrid System to Detect Polypeptide-Polypeptide Interactions” in Cellular Interactions in Development: A Practical Approach, Hartley, D. A. ed. Oxford University Press, Oxford, pp. 153-179, with a bait-library pair of rkv4.3 bait-rat mid brain library. A filter disk beta-galactosidase (beta-gal) assay was performed essentially as previously described (Brill et al. (1994) Mol. Biol. Cell. 5:297-312). Clones that were positive for both reporter gene activity (His and beta-galactosidase) were scored and fish, plasmids were isolated from yeast, transformed into E. coli strain KC8, DNA plasmids were purified and the resulting plasmids were sequenced by conventional methods (Sanger F. et al. (1977) PNAS, 74: 5463-67).
Positive interactor clones were subjected to a binding specificity test where they were exposed to a panel of related and unrelated baits by a mating scheme previously described (Finley R. L. Jr. et al. (1994) PNAS, 91(26):12980-12984). Briefly, positive fish plasmids were transformed into Y187 and the panel of baits were transformed into HF7c. Transformed fish and bait cells were streaked out as stripes on selective medium plates, mated on YPAD plates, and tested for reporter gene activity.

[1] = Kv4.3 co-expressed with the KChIP

Sequence of rKv4.3 (Q62897 1-487 limits assumed): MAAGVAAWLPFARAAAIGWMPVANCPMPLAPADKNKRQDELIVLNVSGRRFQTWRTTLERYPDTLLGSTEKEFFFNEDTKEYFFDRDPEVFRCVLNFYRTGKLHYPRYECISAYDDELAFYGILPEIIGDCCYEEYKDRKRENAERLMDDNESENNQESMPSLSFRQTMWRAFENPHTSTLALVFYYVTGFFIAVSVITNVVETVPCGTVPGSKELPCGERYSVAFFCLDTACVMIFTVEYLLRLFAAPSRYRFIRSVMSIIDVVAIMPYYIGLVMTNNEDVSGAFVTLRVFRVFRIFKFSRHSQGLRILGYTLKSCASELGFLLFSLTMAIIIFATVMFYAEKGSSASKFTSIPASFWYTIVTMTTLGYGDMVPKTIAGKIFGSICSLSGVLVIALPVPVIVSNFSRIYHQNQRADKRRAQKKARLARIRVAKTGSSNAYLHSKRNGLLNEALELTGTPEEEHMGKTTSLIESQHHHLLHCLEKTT

Molecule	Inactivation time constant (ms ± SEM) (rKv4.3; [1]) [ms]	Peak amplitude (μA ± SEM) (rKv4.3; [1]) [μA]	effect on Kv4.3 current (rKv4.3)	other results
KChIP4N2: N-terminal splice variant of KChIP4 (protein) MNLEGLEMIAVLIVIVLFVKLLEQFGLIEAGLEDSVEDELEMATVRHRPEALELLEAQSKFTKKELQILYRGFKNECPSGVVNEETFKEIYSQFFPQGDSTTYAHFLFNAFDTDHNGAVSFEDFIKGLSILLRGTVQEKLNWAFNLYDINKDGYITKEEMLDIMKAIYDMMGKCTYPVLKEDAPRQHVETFFQKMDKNKDGVVTIDEFIESCQKDENIMRSMQLFENVI				Peak amplitude (μA ± SEM) (rKv4.3; KChIP4N2 cRNA 1× (stock)): 0 ± 0 μA; Peak amplitude (μA ± SEM) (rKv4.3; KChIP4N2 cRNA diluted 5×): 4 ± 1 μA; Inactivation time constant (ms ± SEM) (rKv4.3; KChIP4N2 cRNA diluted 30×): 681 ± 28 ms; Peak amplitude (μA ± SEM) (rKv4.3; KChIP4N2 cRNA diluted 30×): 25 ± 2 μA; Inactivation time constant (ms ± SEM) (rKv4.3; KChIP4N2 cRNA diluted 120×): 193 ± 13 ms; Peak amplitude (μA ± SEM) (rKv4.3; KChIP4N2 cRNA diluted 120×): 16 ± 3 μA; Inactivation time constant (ms ± SEM) (rKv4.3; KChIP4N2 cRNA diluted 500×): 84 ± 5 ms; Peak amplitude (μA ± SEM) (rKv4.3; KChIP4N2 cRNA diluted 500×): 9 ± 4 μA; effect on inactivation kinetics of Kv4.3 (rKv4.3; high concentrations of KChIP4N2 (e.g. 5× dilution of stock)): converted the fast-inactivating Kv4.3 current into an almost non-inactivating current
KChIP4N1: KChIP4 splice variant KChIP4a (protein) MLTLEWESEGLQTVGIVVIICASLKLLHLLGLIDFSEDSVEDELEMATVRHRPEALELLEAQSKFTKKELQILYRGFKNECPSGVVNEETFKEIYSQFFPQGDSTTYAHFLFNAFDTDHNGAVSFEDFIKGLSILLRGTVQEKLNWAFNLYDINKDGYITKEEMLDIMKAIYDMMGKCTYPVLKEDAPRQHVETFFQKMDKNKDGVVTIDEFIESCQKDENIMRSMQLFENVI	112 ± 7	6 ± 1	statistically had no significant (ns) effect on Kv4.3 amplitude	
KChIP4N3: KChIP4 splice variant KChIP4d (protein) MNVRRVESISAQLEEASSTGGFLYAQNSTKRSIKERLMKLLPCSAAKTSSPAIQNSVEDELEMATVRHRPEALELLEAQSKFTKKELQILYRGFKNECPSGVVNEETFKEIYSQFFPQGDSTTYAHFLFNAFDTDHNGAVSFEDFIKGLSILLRGTVQEKLNWAFNLYDINKDGYITKEEMLDIMKAIYDMMGKCTYPVLKEDAPRQHVETFFQKMDKNKDGVVTIDEFIESCQKDENIMRSMQLFENVI	85 ± 4	43 ± 4	increased the peak amplitude of Kv4.3	
KChIP1l: KChIP1long splice variant of KChIP1 (protein) MGAVMGTFSSLQTKQRRPSKDIAWWYYQYQRDKIEDELEMTMVCHRPEGLEQLEAQTNFTKRELQVLYRGFKNECPSGVVNEDTFKQIYAQFFPHGDASTYAHYLFNAFDTTQTGSVKFEDFVTALSILLRGTVHEKLRWTFNLYDINKDGYINKEEMMDIVKAIYDMMGKYTYPVLKEDTPRQHVDVFFQKMDKNKDGIVTLDEFLESCQEDDNIMRSLQLFQNVM	100 ± 8	55±7		fold increase of inactivation time constant of Kv4.3 (rKv4.3): ~2 fold
8t: 8t polypeptide, splice variant of 9q (protein) MNRCPRRCRSPLGQAARSLYQLVTGSLSPDSVDDEFELSTVCHRPEGLEQLQEQTKFTRKELQVLYRGFKNECPSGIVNEENFKQIYSQFFPQGDSSTYATFLFNAFDTNHDGSVSFEDFVAGLSVILRGTVDDRLNWAFNLYDLNKDGCITKEEMLDIMKSIYDMMGKYTYPALREEAPREHVESFFQKMDRNKDGVVTIEEFIESCQKDENIMRSMQLFDNVI				binding to rKv4.3N in yeast two-hybrid assay (rKv4.3N): able to bind to the Kv4.3 polypeptide
KChIP2m: KChIP2 splice variant m (protein) MRGQGRKESLSESRDLDGSYDQLTGHPPGPSKKALKQRFLKLLPCCGPQALPSVSENSVEDEFELSTVCHRPEGLEQLQEQTKFTRRELQVLYRGFKNECPSGIVNEENFKQIYSQFFPQGDSSNYATFLFNAFDTNHDGSVSFEDFVAGLSVILRGTIDDRLSWAFNLYDLNKDGCITKEEMLDIMKSIYDMMGKYTYPALREEAPREHVESFFQKMDRNKDGVVTIEEFIESCQQDENIMRSMQLFDNVI	70 ± 2	40 ± 4		binding to rKv4.3N in yeast two-hybrid assay (rKv4.3N): able to bind to the Kv4.3 polypeptide
KChIP2C: KChIP2 splice variant, rat KChIP2C (protein) MRGQGRKESLSESRDLDGSYDQLTGHPPGPSKKALKQRFLKLLPCCGPQALPSVSENSVEDEFELSTVCHRPEGLEQLQEQTKFTRRELQVLYRGFKNECPSGIVNEENFKQIYSQFFPQGDSSNYATFLFNAFDTNHDGSVSFEDFVAGLSVILRGTIDDRLSWAFNLYDLNKDGCITKEEMLDIMKSIYDMMGKYTYPALREEAPREHVESFFQKMDRNKDGVVTIEEFIESCQQDENIMRSMQLSPLLN	74 ± 4	44 ± 5		
KChIP2s: KChIP2 splice variant, human KChIP2s (protein) MRGQGRKESLSDSRDLDGSYDQLTDSVDDEFELSTVCHRPEGLEQLQEQTKFTRKELQVLYRGFKNECPSGIVNEENFKQIYSQFFPQGDSSTYATFLFNAFDTNHDGSVSFEDFVAGLSVILRGTVDDRLNWAFNLYDLNKDGCITKEEMLDIMKSIYDMMGKYTYPALREEAPREHVESFFQKMDRNKDGVVTIEEFIESCQKDENIMRSMQLFDNVI	90 ± 3	44 ± 3		
KChIP2l: KChIP2 splice variant, rat KChIP2l (protein) MRGQGRKESLSESRDLDGSYDQLTGHPPGPSKKALKQRFLKLLPCCGPQALPSVSETLAAPASLRPHRPRPLDPDSVEDEFELSTVCHRPEGLEQLQEQTKFTRRELQVLYRGFKNECPSGIVNEENFKQIYSQFFPQGDSSNYATFLFNAFDTNHDGSVSFEDFVAGLSVILRGTIDDRLSWAFNLYDLNKDGCITKEEMLDIMKSIYDMMGKYTYPALREEAPREHVESFFQKMDRNKDGVVTIEEFIESCQQDENIMRSMQLFDNVI	87 ± 4	51 ± 4		
KChIP1N: N-terminal splice variant of KChIP1 (protein) MWAEGESEGLQTLGIVVVVCSSLKLLHYLGLIDLSDDKIEDELEMTMVCHRPEGLEQLEAQTNFTKRELQVLYRGFKNECPSGVVNEDTFKQIYAQFFPHGDASTYAHYLFNAFDTTQTGSVKFEDFVTALSILLRGTVHEKLRWTFNLYDINKDGYINKEEMMDIVKAIYDMMGKYTYPVLKEDTPRQHVDVFFQKMDKNKDGIVTLDEFLESCQEDDNIMRSLQLFQNVM	1778 ± 136	18±3	did not affect peak amplitude of Kv4.3	fold increase of inactivation time constant of Kv4.3 (rKv4.3): 32 fold
